A protein production outcome set (Wang et al. 2014)

Experiment: label from the status in PepcDB records
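Also: failed if final PepcDB status was selected cloned or expressed and not failed if soluble or beyond.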

| Sequence | protein production |
| --- | --- |
| MKKQLIILTTLSTCIFLSACNDNNDSGSYVSSPSIPENNIQNPVVRMDAYTSTDMSLVANESLLMTYKMLGINNKEVQATALVFTPKGVPPVGGWPIVAWAHGTTGVADVCAPSRNVMDENVKTMITQLLAQGYVVVAPDYEGLGEPSGKEIHPFLNVKSEAYSITDAVVAAKSYLGAKAATRWVAVGHSQGGQAALGAAQYASRAKLTYKGTIAVAPASNLDLILNAGELSAANQPVAVQIPTYTNLDTYTALITAGLRNPNPSLQYSQIFKTPSDSIAAQAESVCAPALGQSFAAGLTEYSNKNNNTLVGYGRTQDGFLNLPVVKNFTSTDGQPLTVKVSTPIKIYQGQADTTVPLIATNKLVTEAKLAGTNINFITNETWTHGSAYSLNISNIVTDVNTLFTQ | failed |
| MSVFTTKVQSIGPEAELFKEEKMVILFGKDAPDALADYCYNIEVQPVTEAITDKQTLVIDEQTYQITAVGEVVLTNLDTLGHITIKFDGATTPELPGTLYVEEKAIPEITVGTTIT | failed |
| MAVYANTSVQDFYEFWLEEVKKKSLSYNSYYSFKKTVQNYILPLYGRLSMGKLRKNHVKRIYKKTYETSPSVAKIVKTVLTTSFKYALRYGYVEEDYVTGLKWNRVILEHHHHHH | failed |
| MLPVASLLILVPLIFAVVTFFTKTKQLAAGFGFLGSLATLGLTLYAYLNFDSSTAAMQFYESVSWIPFLGVNYSVGIDGVSMPLILLNAIVIPFMILFTWKEEMESPNRFYGLILTMQAAVIGVFVALDFVVFYIFWELTLVPLFFIVNLWGGANRAHASYKFFIYTHVASLVMLLGIFGLFYTALNQTGVPTFDIRELIAQFQFFEPGLMKDGIFLAILFGFLAKLPAFPFHSWLPDAYSEAPTAGSILFILLKIGGYGLFRISLPMLPNTGSPQLMIMILGLLGSVSILYGALLALRQKDLKRMIAYSSLSHMGYVILGSAGLVTLSVSGAMFQQFSHGLIMSIMFMSAGAIQTAAGTRIINELGGLAKKMPMLTVAMMVGFMASLGLPGLTGFIAEFLVLTFTFTNLPVFVVIALLAIVVTAGYHLWAMQRAMFGVYNEKLGDVRDINSIQVFSMAVIALLVLYFGLNPSPVLDMMINNSEAIVSLAAGMGV | failed |
| LAPGLHFIATPIGAARDITLRALDILRAADVLAAEDTRTLRHLMEIHGIPLGGRPLVAYHDHNGEAARPRLLRALAEGRSVAYASEAGTPLVADPGFQLGRAAIAAGHPVLAAPGPS | failed |
| MENTLSFKKQGYWLFSSAIIIGVLFLLLPHIISNIGVLEFIGAFFNALCMGVIAFIILKAEFLDWFKHFSFKWIIIGAPALIIISSIFNIAWAYFAGSTTENGINSVLTWTYVFTSIPFMLLGEELLSISLLYAAWKKWNWKFWQASLLCSLLFATWHLTSYDFNFLQCIITLAPARLILNYLFKKTNSVWVTFIVHFIFDFIAFLPILLK | failed |
| MLHFAHIFQNKVHTMNITKPFPLPTGYFGIPLGLAALSLAWFHLENLFPAARMVSDVLGIVASAVWILFILMYAYKLRYYFEEVRAEYHSPVRFSFIALIPITTMLVGDILYRWNPLIAEVLIWIGTIGQLLFSTLRVSELWQGGVFEQKSTHPSFYLPAVAANFTSASSLALLGYHDLGYLFFGAGMIAWIIFEPVLLQHLRISSLEPQFRATMGIVLAPAFVCVSAYLSINHGEVDTLAKILWGYGFLQLFFLLRLFPWIVEKGLNIGLWAFSFGLASMANSATAFYHGNVLQGVSIFAFVFSNVMIGLLVLMTIYKLTKGQFFLK | not failed |
| SGQAYIGTYPNGDKIFVKINTTPILAALAKEQIAPQLLWAKRLGNGDMMSAQEWLDGRLLTRADMNSKQIIQVLLQMHKSKPLVNQLLQLNYKVETPLDLLLSWERSAPYQISENAYLQSVVAEMKRNLPDFKKDYATIVHGDVRHSNWVITTSGLVYLVDWDSVRVTDRMYDVAHILSHYIPHTRWAEWLSYYGYKQNTKVFQKIKWYGQLSYLSQILKYYENR | failed |
| MVAHSLVPLSPAAHAARLSSPSPRSLPQAPPVVLAVPPINRRTILVGLGGALWSWNALAAKEEAMAAARRPPPPPPKEKKDPTVTGVQAKVLASKKRKEEMKASIAKLREKGKPVVEAKPSSSSSE | failed |
| MDSQTGVTRRRLLLGLGSGLGLLGGGGAYVYWSLQGDSGEYTAPNSQPVVTTRGLLDSAEEPAAETEGAWSFDDASEVFLFVHGFSTDAETARDNAYTAQLALGEYTSAPVVAYSWDSDVEWEQAKDNAVANRTLLAQWLMEWAETDGRPVHVLAHSLGARVTGETLRVLAEQGATDVLASVSLLGGAIPYDSVVQGGRYGDAIEAVDAPVSNFYSQNDKVLSWVYRASDRTHAVGHAGTRDAGPLPDGYQDVNVTDLVADHYSYFEPGEGCLARVVAEIE | failed |
| MNRKFTARGPKRIEWAPHSCYHRKAHGFRPGTLSARHRSVRTPRSIVGIRTPHPHPNPTDHDFATMTIRQSALFALALGTLGLLALSGCSAGNPNMSAAEDAMEQERYERALANVDSAIAQDSANAQAYAMKARILRQMADSTAPPEAYKQRYRQARQAEEKAIKFDPGRRSDIKNQRELAFIQEFQKGADAFNRAQQSSQKSDYLRAAAYFGAAGAIRPDSTGPIRNEAFARLQAARLEGGDQGMQEMSNVIPILERYLKKEDEPEKDVYSILSQLYRQGDQPERALEVTERALDDLSSRPTHFRIQGTRGLSYTGTIEAGGTSRQVEGTTPDRIELSTSDGMVTGTFRKQDGGKKQTKGRLQVGLYTQGTQVANSRTTALEEITISEDLSSVTPLAELQNQRLSALNSTGNTEKAMQAYRQQIERNPENARYRYNYGSLLLNSDRYDEAIEQLSEAVKLDSDDPKKQYNLGAAYLNKGVVLQDSLVSVRDSVMAQNRKPTQEEAQMIEDLDEQRLQFFQNAIPPLERARQLSGANGRYRQNACSALLQAYVQTEQTDKAEDVKQCAGAGGNTSGGSGGR | failed |
| MGHHHHHHSHCSSCSTPLYDQGGPVEILPFLYLGSAYHASRKDMLDALGITALINVSANCPNHFEGHYQYKSIPVEDNHKADISSWFNEAIDFIDSIKNAGGRVFVHCQAGISRSATICLAYLMRTNRVKLDEAFEFVKQRRSIISPNFSFMGQLLQFESQVLAPHCSAEAGSPAMAVLDRGTSTTTVFNFPVSIPVHSTNSALSYLQSPITTSPSC | failed |
| MNKFLRVLFILVILAMTDAIIFQLFFPTYMGSHSGYGISVGWQREIGIWNVTVLVILITVNLKYDWFYLRAVLMALIIGGLGIGTNHFLSYLQYRHSVNAIGALENYLLVLGWIIGWWLENSSRKRV | failed |
| MASGLFENDGIKDNKARDFFYSHSSLIVFFLLLLGFGYYLGKLLFGGSSLEVYLDLRDKHERLQQEITELQSKNVRLQKRLFELKELRPRD | failed |
| MAGASHDIHPPKVEYFDLRDHTNTDPKGFVRHVDHYRVEPWGLYMARTSDHPQFHYLESWLLPDLGLRASIFHYHPYHQRDQDHYVDIGTFTRGDDVWKSEDHYLDLVVRTGRDTELLDVDELMEAHTTGLLDTATAEQAILTATTAIDGIAAHGHDLGRWLASIGMPIDWR | not failed |
| MISVFDIYKIGVGPSSSHTVGPMKAGKEFIDDLRAMGKLRDITKITVDVYGSLSLTGKGHHTDIAIIMGLAGNSPEKVDIDSIPGFIARVEETERLPVGMHCHTVSFPREGGMNFHKTNLELHENGMQIHAWIDDEKVYSKTYYSIGGGFIVDEENFGK | not failed |
| MADPIRIFIGSGEASRIERQVAIDSLQRMTDRPLAITAFNGTHNALEVLGEPPRPAPMSLRVKYWNATEFSLYRFLIPELCGYQGRAIYIDSDVVCLHDIGELFDTDLEGADFLAKAEAYPDRAGALWGLSVVLFDCDRCRFPLEQFIDELEAGVYDYRDLPCMGPRFLNKRPYQIGALDPRWNSFDFADRETRLIHYTDLKRQPWKRPGHPYGDLWFKAMQQALDSGILTDTEISQAIKRFNVRDDIREGNRPRWLTRQRLRSWLRQVKQQLRPVKV | failed |
| AGSMEDIPVEEAVLTGVATDNSEAKITVLGIPDSPGSASAVFRALADAEINIDTVLQNISSLEDNRTDITFTCPRADGPHAMELLRNLQAKNDWQNVLYDDQIGKVSLVGAGMKSHPGVTAEFCEALRDAGVNIELISTSEIRISVLIRESDVDVAARAIHEKFELGGETEAIVYAGTGR | failed |
| MLSRLRHRLLAVAAAAGLTGALLSFGAAPPADAAVPATIPLKITNNSARGDAVHIYNLGTSLTTGQQGWADENGTFHAWPAGGNPPTPAPDASIPGPAAGQTKTIRIPKLSGRIYFSYGQKLDFRLTTGGLVQPAVQNPSDPNRNILFNWSEYTLNDGGLWLNSTQVDMFSAPYTVGVQRADGGVTSAGQLKAGGYRGVFDALRAQPGWGGLIQTRPDGTVLRALAPLYGVETGALPASVMDDYINRVWQKYTTTTLTVTPFGDRPDTKYFGRVSGNVMNFTNTSGAVVTSFQKPDASSVFGCHRLLDAPNDQVRGPISRTLCAGFNRSTLLSNPNQPDPSAANFYRDPVTNHYARIIHERMADGKAYAFAFDDVGNHESLVHDGNPAEARLTLAPLDLEHHHHHH | not failed |
| MESMQDLWTLKYRAETLEGMLGNEHAVRTLSELLQSGTLPHLIFYGPENSGKTTASLALARELYGETWKNNFVYFNASDFFDQGKRYLVRDKRFVRILGTDDPKKIYKSVIDIFKEVVNEYAGMASIDADYKIIYIDNAESLSSDAQHALRRIMEKYSSTCRFILSTTRPSKLISPLRSRGLQVFFAYVPDSLLKTHLERIALAEKLKLSDGALDAVLYLAKGNVARAVQTLQLAALRSEGAEITEEIVYEATMKGRDETIDELLEAALAGDFARGRQLIDGMIIEKGLSGTDIFEGLSEALIDSGETDADIARLIVSISEADARLTDATSERIQLEKLISTFS | failed |
| PLKEQKVINTANIKTNSKLDLAEYENGLINIATQQFDTESHVLQLNQYIPEKLIDELVAKVEAPVLTNIIEQDYFGKQNSNELSLSGVMIGLAMSSSVSNEEAMSKGTEVAKQLIEAINKNDKYNKSPITFAIFKQESTSSLKNGTYIASATVQKNDTNLGNWSTIDEKSYSYPSDEFTQAHGEDNTKINNFAKEIKGFSNGDFIPVNAKVSYKKDQMDTLNMNIVIKYNGKTELMALTQLAAQGMLDKLPKDAKVQLQIKSESKIEAVIIKEKNSDKPFV | failed |
| MSGWYELSKSSNDQFKFVLKAGNGEVILTSELYTGKSGAMNGIESVQTNSPIEARYAKEVAKNDKPYFNLKAANHQIIGTSQMYSSTAARDNGIKSVMENGKTTTIKDLTLEHHHHHH | not failed |
| MADVEIMQTVQTEVKKTTKKVKKSSKRRESEVQISEVEVDATIEERGGEYTKAMDKDWHSGHFCCWQCDESLTGQRYVIRDDHPYCIKCYENVFANTCEECNKIIGIDSKDLSYKDKHWHEACFLCFKCHLSLVDKQFGAKADKIYCGNCYDAQFASRCDGCGEVFRAGTKKMEYKTRQWHENCFCCCVCKTAIGTKSFIPREQEIYCAGCYEEKFATRCIKCNKVITSGGVTYKNEPWHRECFTCTHCNITLAGQRFTSRDEKPYCAECFGELFAKRCTACVKPITGIGGTRFISFEDRHWHHDCFVCASCKASLVGRGFITDGPDILCPDCAKQKLM | failed |
| SLVDGKLVCVTGAGGYIASWIVKLLLERGYTVRGTVRNPTDPKNNHLRELQGAKERLTLHSADLLDYEALCATIDGCDGVFHTASPMTDDPETMLEPAVNGAKFVIDAAAKAKVKRVVFTSSIGAVYMNPNRDTQAIVDENCWSDLDFCKNTKNWYCYGKMLAEQSAWETAKAKGVDLVVLNPVLVLGPPLQSAINASLVHILKYLTGSAKTYANLTQVYVDVRDVALGHVLVYEAPSASGRYILAETALHRGEVVEILAKFFPEYPLPTKCSDEKNPRAKPYKFTTQKIKDLGLEFKPIKQSLYESVKSLQEKGHLPLPQDSNQNEVIIES | failed |
| MPVTDVKHDLDTLTLTITAEFAAPVTRIWQIYADPRQLEKVWGPPSHPATVVDHDLRPGGRVTYFMTGPDGEKYAGYWEITAVDEPHSFSFLDGFADEDFNPNTDLPVSTNVYTFTEHDGGTRATYVGTYASAEALQQVLDMGVIEGASSAINQIDALLTA | failed |
